Experimental data from the RNAGym collection of RNA variant scans (doi:10.1073/pnas.2313332121).

B1: TPR t1 (parent)
chain: GACCAAUCUGCCCUCAGAGCUCGAGAACAUCUUCGGAUGCAGAGGAGGCAGGCUUCGGUGGCGCGAUAGCGCCAACGUCCUCAACCUCCAAUGCAUCCCACCACAUGAUGAUGCCUGAAGAGCCUUGGUUUUUUG

Variants of: B1
Assay: polymerase ribozyme fitness, log enrichment relative to wild type (log ratio); higher = more active; in vitro selection for triplet polymerase activity
Outline: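 For each subunit of a heterodimeric triplet polymerase ribozyme, a mutant library was built by PCR and transcribed, then taken through a single in vitro selection round in triplicate. Selection involved annealing to a biotinylated primer, the partner subunit and triplets, incubation frozen at −7 °C, gel excision of extended constructs, capture on streptavidin beads and RT-PCR. Genotypes were retained after Illumina sequencing of inputs and outputs only with ≥10 input reads and ≥1 read in each output. Fitness is defined as the logarithm of a genotype's enrichment relative to wild-type enrichment, using inverse-variance-weighted averages across replicates, with the logarithm taken to base 2.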

Point of comparison: C76G A119U, “polymerase ribozyme fitness (log ratio)” value -1.37. Against it:
- C53U C72U — higher, -0.842
- C115G U133G — higher, -0.9
- C70U A91U — lower, -3.34
- C15A C40U G120C — higher, -0.554
- G36U U59C U78C C101U C123A — within 0.2 log units, -1.25
- C34U C73A — lower, -4.32
- C40G G57A G61U G113A A121G G122A — lower, -2.96
- A24G G42U G60U A66U C88G A121G — lower, -3.8
- C73A A74U C85U C94U C115U — lower, -3.24
- A5U A95C — within 0.2 log units, -1.24
- C53G U131G — higher, -1.07
- C11G A29U — lower, -1.95
- C11A G61A — within 0.2 log units, -1.4
- A6C C15A U33G C124G — lower, -5.85
- U32G G60A — lower, -7.06
- A29G G77U — within 0.2 log units, -1.38
- C49U G127A — lower, -1.64
- C104U G117U — higher, -0.481
- G113A U129G — lower, -1.7
- U54G C97U — higher, -0.558
- C85A A111U — lower, -4.18
- G48C C56G C101U U125G — lower, -1.87
- G63U G113A — lower, -1.99
- A16G G93A — lower, -2.61
- A5U G113C — lower, -2.11
- C8G G45A A84G C89U G117A — lower, -2.7
- G42A G77U G120C — lower, -1.93
- C4G G71U C115U — lower, -3.28
- A37U G48C A121C — higher, 0.912
- A46C G120C — higher, 1.36
- C124G — higher, 1.59
- C12U G48A C49G G51A U112A C123A — higher, 0.0276
- A27C A29G C62A — lower, -5.73
- A50G G63A U112A G122A — within 0.2 log units, -1.39
- C12A C15U C70U C86U — lower, -2.81
- G61C C104U — within 0.2 log units, -1.51
- C53A G69U — higher, 1.4
- G60A G107A — lower, -2.9
- C98A C101U G110U G120U C123G U130G — lower, -5.9
- C80U C98G — lower, -6.73
- C94G A118U — higher, -0.748
- C62U U78C U96G U129C — higher, -0.314
- G63U U78C — lower, -2.92
- A50G G69U — higher, 0.675
- U96G U130G — within 0.2 log units, -1.28
- C13U C34A U78G — lower, -3.35
- G60A A84U C115A U131G — higher, -0.704
- C11A A118G — within 0.2 log units, -1.55
- C80U C98U C115A C124G — higher, -0.376
- C13U G42U G48A — higher, -1.13
- G63A A111G — higher, -0.659
- C101U A111C — higher, 0.393
- G19C A29U C79G U112C A119G — lower, -4.42
- C20U A29G C49A G58A A74U U81A U112A — lower, -3.14
- A2G A41U G120U — within 0.2 log units, -1.2
- C49U G93A G110A — lower, -2.9
- C12G C94U — higher, -0.437
- G23U C62A C99A G113U G127C — lower, -5.56
- C12G U78C — higher, -0.718
- A6C C15G A46C G107U G117C — lower, -4.61
- C20G U32A G44C A111C G113U — lower, -2.86
- C8U G61C — within 0.2 log units, -1.18
- C53G G117A — within 0.2 log units, -1.45
- U32C C49U — higher, -0.805
- G60U G113U — lower, -2.04
- A118U U130G — higher, -0.458
- A26C G57U — lower, -6.49
- A46C U92C — lower, -1.97
- G61U C64U — lower, -3.25
- C72U A84G — lower, -1.74
- C22G C114U — lower, -3.43
- A46U A74U C82A — lower, -1.61
- G69C C99U G120U — lower, -5.41
- G42C C49G C56U — lower, -2.41
- G19C C115G — lower, -2.22
- C70G U78C G113C — lower, -5.1
- C72A A111C — higher, -0.314
- U9A G110A A111U C115U — lower, -6.7
- G19A G58C C94G G120C — lower, -3.72
- G51U A74C A121C — higher, -0.422
- C72U U130C — higher, -0.237
- U7G C20U C53U A68C U112A — lower, -6.37
- A16C A83C U106C C115U U125C — lower, -2.38
- C13U G69A C82U — lower, -2.59
- C3U G107A C124G G128A U133G — lower, -4.53
- C22G G44U — lower, -4.12
- A29U C70G U125G — lower, -3.65
- G48A C124U U133G — higher, 0.41
- C40G C56G — within 0.2 log units, -1.42
- U106G C123G C124G — higher, 1.38
- C3A A5U C11G G36U G45U — higher, -1.02
- C20U U33G — lower, -6.55
- G69C C102U A108C A111G C115U U130A — lower, -6.19
- C3U G61C — lower, -2.38
- A5C C73A C123G — higher, 1.28
- A83C A84C G128A U131A — lower, -2.01
- G35U G39C G120A U125A — lower, -5.76
- A41C G93U — lower, -1.92
- G17U C114A — lower, -5.05
- C88U C114G — lower, -3.05
- A46C G47U — lower, -5.94
- C53U C72U U87G G117C — lower, -3.81
- C3U C86U C101G — lower, -1.68
- A18U C40A G120U C123A U129C — lower, -4.63
- G51U G61C U133G — lower, -2.81
- C11G G35A G69C C98U — within 0.2 log units, -1.46
- U7C C8U A46U C56G G128U — lower, -3.61
- G60C G69U C80U — lower, -5.8
- A2C G120A C123A — higher, -0.977
- C3U G39A G69U A105C G120U G128C — lower, -3.77
- C8G G61A C72U G128C — higher, -0.569
- C34G G61A U87A G110C — lower, -6.72
- A6U A43C A50G G61A C115A U116C — lower, -4.89
- C20A G60U U92C A121C — lower, -2.4
- G60A G110A — within 0.2 log units, -1.52
- U9A A118G — higher, 0.108
- C11G G60U — higher, 0.25
- C85A G127U — lower, -4.56
- U92A U106A C114A C123A — lower, -5.83
- G44A C72G C114A A121U G127C — lower, -2.5
- A37C G44U C56G C73A C86U — lower, -5.78
- U55G C70U C89A C104U — lower, -2.38
- C13U C20U G120C C123G G127A — lower, -2.54
- C12G A26C G60U A121U C124A U131G — lower, -3.72
- G63U A74U G77A — lower, -5.16
- A18U G52U U133A — lower, -3.89
- C20U C102U — lower, -2.92
- G35U U130C — lower, -5.09
- C11U C124U — higher, 1.63
- U9C G60A C102G G110C G128U — lower, -7.66
- U96A G113A — lower, -1.86
- C13U A18C G77A — within 0.2 log units, -1.41
- C64A A84C — lower, -5.15
- A41U U92C — within 0.2 log units, -1.21
- U9A C73A A95G C104A G110U — lower, -3.62
- C4A A37U G93A — lower, -2.66
- C22A C82U A90U U112A — lower, -4.93
- C62G G117A U131G — lower, -4.48
- C98U U126G G128U — lower, -2.42
- G48U C53G — within 0.2 log units, -1.34
- C70U U81A U116G U125A — lower, -5.57
- C12U G60C C123G — higher, 1.46
- C15A G52A G60A U112C U116C — lower, -3.35
- A6U G69U G113A — higher, -0.642
- C40U C76G G120C — higher, 0.524
- C12U C49A C115U — within 0.2 log units, -1.47
- C11A C49U C85A U106A — lower, -3.44
- A84U C114U U126G — lower, -6.08
- A2U C40A G61U C73A U92A C104U — lower, -5.16
- C56A G60U G113A — within 0.2 log units, -1.2
- A41C C56U — higher, -0.143
- A83U A100U C123U U125G — higher, 0.186
- C53G C64U G110U G128A U133A — lower, -5.27
- C4U C72U — higher, -0.857
- G10A C72U C89G G93U — lower, -2.93
- G48U G120A C123U — higher, 0.409
- C40A A46U G69U C80U G110A U112G — lower, -7.41
- G58C C72U — higher, -0.231
- C115U C124U — higher, -1.17
- C8A A119G U126G — higher, -0.311
- A2U A5G A18U A43C C56U C85A U126C U129A — lower, -3.94
- A18C G47U — lower, -4.12
- A16G G63U — lower, -1.65
- G69A G110U — lower, -3.36
- C104U C115U — higher, -0.334
- C34A C124G U130G — higher, -0.7
